Test results published in patent US9322000B2, “Methanol dehydrogenase enzymes from Bacillus” (Sinvent AS, priority 2012, dated 2016).

System: 13C-methanol
Assay: 13C-methanol labeling of genetically engineered C. glutamicum
Type: cell-based
Conditions: C. glutamicum delta ald expressing Mdh2, Hps and Phi; 40 mM 13C-methanol; 30 and 90 minutes
Experimental: For the labeling experiments we used the C. glutamicum delta ald strain that expresses Mdh2-MGA3 (pVWEx1-Mdh2), Hps and Phi (pEKEX3−Hps+Phi). As a negative control the C. glutamicum delta ald strain with the empty pEKEX3 plasmid was used. All C. glutamicum strains were grown on M9 medium containing (per liter) 3.48 g Na2HPO4.12 H2O, 0.60 g of KH2PO4, 0.51 g of NaCl, 2.04 g of NH4Cl, 0.10 g of MgSO4, 4.38 mg of CaCl2, 15 mg of Na2EDTA.2H2O, 4.5 mg of ZnSO4.7 H2O, 0.3 mg of CoCl2.6 H2O, 1 mg of MnCl2.4H2O, 1 mg of H3BO3, 0.4 mg of Na2MoO4.2H2O, 3 mg of FeSO4.7H2O and 0.3 mg of CuSO4.5H2O. For all the cultivation (M9 or LB), 1 mM of IPTG was used as inducer and 100 μg/ml of spectinomycin and 25 μg/ml of kanamycin were added in the medium as resistant markers. All the cultivations were performed at 30° C. Cell strains were plated from a glycerol stock on a LB agar plate (10 g/l of tryptone, 5 g/l of yeast extract, 10 g/l of NaCl, and 16 g/l agar) and grown afterwards on a LB liquid medium for 6 hours. The liquid pre-cultures containing M9 medium plus 3 g/l ribose were inoculated from the LB cultures at a final OD600 of 0.6 for 12 hours. […] The labeling patterns of intracellular metabolites were measured using a Dionex ICS 2000 system (Dionex, Sunnyvale, USA) coupled to a triple quadrupole QTrap 4000 mass spectrometer (Applied Biosystems, Foster City, USA).

B1: Mdh2-MGA3: NAD-dependent methanol dehydrogenase encoded by chromosomal gene mdh2 of B. methanolicus MGA3, SEQ ID NO. 2 (protein)
chain: MTNTQSAFFMPSVNLFGAGSVNEVGTRLADLGVKKALLVTDAGLHGLGLSEKISSIIRAAGVEVSIFPKAEPNPTDKNVAEGLEAYNAENCDSIVTLGGGSSHDAGKAIALVAANGGKIHDYEGVDVSKEPMVPLIAINTTAGTGSELTKFTIITDTERKVKMAIVDKHVTPTLSINDPELMVGMPPSLTAATGLDALTHAIEAYVSTGATPITDALAIQAIKIISKYLPRAVANGKDIEAREQMAFAQSLAGMAFNNAGLGYVHAIAHQLGGFYNFPHGVCNAVLLPYVCRFNLISKVERYAEIAAFLGENVDGLSTYDAAEKAIKAIERMAKDLNIPKGFKELGAKEEDIETLAKNAMKDACALTNPRKPKLEEVIQIIKNAM
modifications: Bacillus methanolicus MGA3
13C label incorporation into metabolites (mass isotopomer fraction M1): Significant label incorporation into metabolites was observed
